Results: patent US20120195831A1 (published 2012)

Assays:
[1] = target: T1, human Her3 receptor on cells (T47D, MCF7) (human, UniProt P21860 20-1342); assay: cell-based or functional assay
[2] = target: T1, human Her3 receptor on cells (T47D, …); assay: cell-based or functional assay; remark: listed apart in the source
[3] = target: T1, human Her3 receptor on cells (T47D, …); assay: cell-based or functional assay; remark: listed apart in the source
[4] = target: T1, human Her3 receptor on cells (T47D, …); assay: cell-based or functional assay; remark: listed apart in the source
[5] = target: T2, EGFR on CHO cells (CHO-EGFR) (UniProt P00533 25-1210, limits assumed); assay: FACS on CHO-EGFR cells, purified IgG, R-PE anti-mouse IgG
T2 construct: whole, on cells
Description: (§1) CHO-Her2, CHO-Her4, CHO-EGFR cells were harvested and resuspended in PBS, 2% FBS at a concentration of approximately 1×10⁶/ml. Cells were stained with purified IgGs at 4° C. for 40 min. Cells were washed with 4 mL PBS, 2% FBS, then centrifuged at 1200 rpm for 10 minutes. Supernatant was removed. Cells were stained with R-PE conjugated anti-mouse IgG at 4° C. for 30 min. Cells were washed with 4 mL PBS, 2% FBS, then centrifuged at 1200 rpm for 10 minutes. Supernatant was removed and cell pellets were fixed in 1% formaldehyde. Cells were analyzed on a FACS Calibur (BD Biosciences) by collecting 20,000 events from gate 1.

[6] = target: T3, Her2 on CHO cells (CHO-Her2) (UniProt P04626 23-1255, limits assumed); assay: FACS on CHO-Her2 cells, purified IgG, R-PE anti-mouse IgG
T3 construct: whole, on cells
Description: as §1

[7] = target: T4, Her4 on CHO cells (CHO-Her4) (UniProt Q15303 26-1308, limits assumed); assay: FACS on CHO-Her4 cells, purified IgG, R-PE anti-mouse IgG
T4 construct: whole, on cells
T4 sequence (Q15303 26-1308 limits assumed): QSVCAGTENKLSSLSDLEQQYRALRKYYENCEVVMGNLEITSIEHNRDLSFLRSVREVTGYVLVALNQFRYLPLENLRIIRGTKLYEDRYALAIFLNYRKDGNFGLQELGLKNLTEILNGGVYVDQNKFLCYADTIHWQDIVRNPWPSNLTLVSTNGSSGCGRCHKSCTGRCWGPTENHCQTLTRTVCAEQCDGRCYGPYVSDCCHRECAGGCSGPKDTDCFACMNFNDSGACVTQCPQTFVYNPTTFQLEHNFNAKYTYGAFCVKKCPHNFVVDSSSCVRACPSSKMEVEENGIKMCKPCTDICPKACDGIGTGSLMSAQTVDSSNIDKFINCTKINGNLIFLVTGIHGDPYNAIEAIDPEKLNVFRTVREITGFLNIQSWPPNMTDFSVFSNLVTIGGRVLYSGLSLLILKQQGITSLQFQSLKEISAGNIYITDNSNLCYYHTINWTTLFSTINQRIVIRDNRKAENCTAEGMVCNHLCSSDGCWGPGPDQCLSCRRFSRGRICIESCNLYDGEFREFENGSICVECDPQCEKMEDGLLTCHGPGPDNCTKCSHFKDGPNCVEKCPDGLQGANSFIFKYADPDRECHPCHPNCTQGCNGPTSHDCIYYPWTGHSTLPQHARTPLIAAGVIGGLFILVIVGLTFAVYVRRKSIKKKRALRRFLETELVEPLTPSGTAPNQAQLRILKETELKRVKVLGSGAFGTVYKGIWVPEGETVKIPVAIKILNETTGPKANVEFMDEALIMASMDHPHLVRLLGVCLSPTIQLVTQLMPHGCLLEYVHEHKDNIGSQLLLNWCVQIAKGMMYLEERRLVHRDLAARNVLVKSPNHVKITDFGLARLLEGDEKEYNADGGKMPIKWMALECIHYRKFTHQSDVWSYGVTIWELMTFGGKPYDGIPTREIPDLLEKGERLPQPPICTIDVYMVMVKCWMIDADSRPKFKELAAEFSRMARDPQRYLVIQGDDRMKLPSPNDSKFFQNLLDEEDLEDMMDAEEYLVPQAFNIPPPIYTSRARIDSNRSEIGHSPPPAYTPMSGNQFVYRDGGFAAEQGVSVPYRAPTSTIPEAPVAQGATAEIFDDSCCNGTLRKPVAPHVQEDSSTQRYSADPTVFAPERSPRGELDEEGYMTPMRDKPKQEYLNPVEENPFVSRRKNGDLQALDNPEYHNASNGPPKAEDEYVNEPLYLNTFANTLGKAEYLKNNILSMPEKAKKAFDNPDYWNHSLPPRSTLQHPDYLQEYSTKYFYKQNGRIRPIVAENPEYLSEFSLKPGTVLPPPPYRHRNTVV
Description: as §1

[8] = target: T5, Recombinant Human Her3 (Her3/ErbB3 extracellular domain) (human, UniProt P21860 20-643); assay: SPR (BIAcore), Mab captured by anti-IgG Fc on CM5 chip, recombinant human Her3 as analyte, 25 °C
T5 construct: Analyte of the BIAcore assay; also called Her3 ECD; human Her3/ErbB3 extracellular domain
T5 sequence (P21860 20-643 limits assumed): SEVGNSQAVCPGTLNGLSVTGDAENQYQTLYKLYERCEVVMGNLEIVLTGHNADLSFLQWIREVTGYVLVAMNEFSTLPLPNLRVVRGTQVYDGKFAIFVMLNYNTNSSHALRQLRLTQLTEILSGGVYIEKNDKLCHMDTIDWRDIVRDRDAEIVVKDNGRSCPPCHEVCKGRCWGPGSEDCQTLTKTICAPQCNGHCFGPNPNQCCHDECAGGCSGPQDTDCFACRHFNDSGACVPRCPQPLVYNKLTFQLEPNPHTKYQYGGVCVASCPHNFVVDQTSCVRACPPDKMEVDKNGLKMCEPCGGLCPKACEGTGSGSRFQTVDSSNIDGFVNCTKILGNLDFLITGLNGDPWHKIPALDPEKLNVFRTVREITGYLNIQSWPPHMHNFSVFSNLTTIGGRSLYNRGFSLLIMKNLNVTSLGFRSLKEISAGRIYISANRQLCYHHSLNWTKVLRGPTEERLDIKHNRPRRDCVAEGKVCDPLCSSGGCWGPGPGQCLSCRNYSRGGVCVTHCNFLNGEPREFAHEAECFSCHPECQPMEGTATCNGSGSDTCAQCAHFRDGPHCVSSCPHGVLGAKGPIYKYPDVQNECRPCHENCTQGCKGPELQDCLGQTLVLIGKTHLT
Description: All experiments were performed at 25° C. at a flow rate of 40 μl/min. To prepare a BIAcore assay, an anti-human IgG-Fc antibody (50 μg/ml each in acetate buffer, pH 5.0) was immobilized onto a carboxymethyl dextran sensorchip (CM5) using amine coupling procedures as described by the manufacturer. 10000 resonance units (RU) of anti-mouse IgG Fc antibodies were linked respectively onto Flowcells (FC) 1 and 2. Purified Mabs to be tested were diluted at a concentration of 5 μg/ml in 0.5% P20, HBS-EP buffer and injected on FC2 to reach 500 to 1000 RU. FC1 was used as the reference cell. Specific signals correspond to the difference of signals obtained on FC2 versus FC1. The analyte (Recombinant Human Her3, apparent molecular weight 97 kDa) was injected during 90 sec at 5 different concentrations (100, 50, 25, 12.5 and 6.25 nM) in 0.5% P20, HBS-EP buffer. These concentrations were prepared from stock solution in 0.5% P20, HBS-EP. The dissociation phase of the analyte was monitored over a 10 minutes period. Running buffer was also injected under the same conditions as a double reference. After each cycle (antibody+Her3 injection), both Flowcells were regenerated by injecting 20 to 45 μl of Glycine-HCl buffer pH 1.5. This regeneration is sufficient to eliminate all Mabs and Mabs/Her3 complexes captured on the sensorchip. Table 1 listed binding KD for Her3 binding monoclonal antibodies.

Her3/Avi/His10 receptor [9] = target: T6, Her3/Avi/His10 receptor (Homo sapiens (Human), UniProt P21860 20-643, limits assumed); assay: AlphaScreen competition; antibody titrated against 10 nM biotinylated NRG-1 beta and 10 nM Her3/Avi/His10; n = 3
T6 construct: Soluble tagged receptor of the AlphaScreen assay; The antibodies are called anti-hHer3 there; not shown: Avi tag; His10 tag (ten histidines by its name)
T6 sequence (P21860 20-643 limits assumed): as above
Description: (§2) SDI or Genovac purified anti-hHer3 Mabs were serially diluted two-fold into an assay buffer made from 25 mM Hepes, 100 mM NaCl, 0.5% BSA and 0.05% Tween20 in an opaque/white, half-well area plate (Costar). Mouse IgG1 antibody was used as a negative control (Southern Biotech; cat #010201). Biotinylated NRG-1 beta ligand and Her3/Avi/His₁₀ receptor were added sequentially at 10 nM concentration to the assay plate containing serially diluted antibodies. This mixture of receptor, ligand and the antibodies was incubated at room temperature with gentle shaking for 90 minutes. AlphaScreen Streptavidin Donor beads and His-Nickel chelate Acceptor beads were added into the assay at a final concentration of 20 μg/ml each. The light sensitive beads were handled under chromagreen filtered light. The assay plates were covered with foil and incubated at room temperature with gentle shaking for 1 hour. The plates were read in PE EnVision plate reader equipped with an Alpha module (dedicated laser for excitation and designed to measure the signal above the well). Table 7 listed IC₅₀ values in ligand blocking that were estimated using four parameter curve fitting with concentration titration graphs (FIGS. 7 A&B).

Her3/Avi/His10 receptor [10] = target: T6, Her3/Avi/His10 receptor; assay: AlphaScreen ligand blocking: antibody titrated against 10 nM biotinylated NRG-1 beta and 10 nM Her3/Avi/His10, % signal
Description: as §2

T1 sequence (P21860 20-1342 limits assumed, stated change not applied): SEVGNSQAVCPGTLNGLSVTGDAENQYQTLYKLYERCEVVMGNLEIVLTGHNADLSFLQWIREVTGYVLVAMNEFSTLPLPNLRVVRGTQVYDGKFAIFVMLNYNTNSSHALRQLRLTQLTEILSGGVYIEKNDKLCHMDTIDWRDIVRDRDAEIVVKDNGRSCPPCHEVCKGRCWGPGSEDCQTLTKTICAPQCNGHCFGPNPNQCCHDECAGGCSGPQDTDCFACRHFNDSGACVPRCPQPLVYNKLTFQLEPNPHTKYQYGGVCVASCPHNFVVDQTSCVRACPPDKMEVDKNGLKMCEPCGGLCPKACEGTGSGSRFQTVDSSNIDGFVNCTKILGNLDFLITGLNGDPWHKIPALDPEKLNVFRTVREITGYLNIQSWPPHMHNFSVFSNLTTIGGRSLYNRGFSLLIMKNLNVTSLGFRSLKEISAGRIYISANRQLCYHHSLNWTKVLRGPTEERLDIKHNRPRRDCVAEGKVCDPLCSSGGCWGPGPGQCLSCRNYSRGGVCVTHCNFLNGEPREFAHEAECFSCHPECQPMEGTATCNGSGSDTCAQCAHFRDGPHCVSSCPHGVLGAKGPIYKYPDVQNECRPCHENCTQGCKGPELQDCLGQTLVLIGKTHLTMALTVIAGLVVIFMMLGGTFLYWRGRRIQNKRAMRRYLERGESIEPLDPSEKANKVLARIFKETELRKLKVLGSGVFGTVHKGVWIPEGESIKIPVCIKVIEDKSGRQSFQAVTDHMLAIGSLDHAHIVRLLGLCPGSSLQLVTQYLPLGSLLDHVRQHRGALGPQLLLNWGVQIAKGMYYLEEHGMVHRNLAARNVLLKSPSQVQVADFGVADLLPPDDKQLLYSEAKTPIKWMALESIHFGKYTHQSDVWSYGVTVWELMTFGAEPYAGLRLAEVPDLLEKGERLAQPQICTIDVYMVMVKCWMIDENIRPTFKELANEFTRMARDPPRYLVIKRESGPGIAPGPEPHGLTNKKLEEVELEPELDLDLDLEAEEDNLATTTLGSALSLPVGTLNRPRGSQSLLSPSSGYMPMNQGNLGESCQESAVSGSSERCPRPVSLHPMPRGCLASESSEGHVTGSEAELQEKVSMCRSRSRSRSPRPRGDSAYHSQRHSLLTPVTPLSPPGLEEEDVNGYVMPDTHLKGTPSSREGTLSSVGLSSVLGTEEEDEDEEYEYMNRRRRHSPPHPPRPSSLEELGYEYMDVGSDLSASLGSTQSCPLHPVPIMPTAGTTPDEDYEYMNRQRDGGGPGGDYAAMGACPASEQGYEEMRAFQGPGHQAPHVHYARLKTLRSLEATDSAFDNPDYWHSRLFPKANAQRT

| Binder | % Receptor Internalization (T47D cells, FACS) [1] | IC50 of inhibition of pHer3 (MCF7 cells stimulated with rhNRG1-β1, ELISA) [2] | IC50 of pAKT inhibition (MCF7 cells stimulated with rhNRG1-β1, ELISA) [3] | IC50 of pERK inhibition (MCF7 cells stimulated with rhNRG1-β1, MSD) [4] | binding result [5] | binding result [6] | binding result [7] | Kd [8] | IC50 (Her3/Avi/His10 receptor [9]) | IC50 (Her3/Avi/His10 receptor [10]) |
| --- | --- | --- | --- | --- | --- | --- | --- | --- | --- | --- |
| 588E10 (antibody, V domains shown, Purified mouse IgG from a hybridoma; also called 588E10-HC; 588E10-LC) VH: EVQLQQSGPKLVGPGESVKISCKGSGYTFTDYGMHWVKQSHAKRLEWIGVITIYDGHTNYNQNFKGKAALTVDKSSNTAYLELARMTSEDSAIYYCARGDYDLFWYLDVWGAGTTLTVSS VL: DVVMTQTPLSLTVSLGDQASISCRSSQNIKHSDGNTYLEWYLQKPGQSPKLLIYKVSNRFSGVPDRFSGSGSGTDFTLKISRVEAEDLGVYFCFQGSHVPLTFGAGTKLELKR | 51% | 90 pM | 0.14 nM | 1.72 nM | no binding | no binding | no binding | 3.31 nM | 4.9 nM | 2.92 nM |
| 588E22 (antibody, V domains shown, Purified mouse IgG from a hybridoma; also called 588E22-HC; 588E22-LC) VH: DVQLQESGPELVGPGESVKISCKGSGYTFTDYGMHWVKQSHAKRLEWIGVITIYDGHTNYNQNFKGKAALTVDKSSNTAYPELARMTSEDSAIYYCARGDYDLFWYLDVWGAGTTVTVSS VL: DVVMTQTPLSLTVSLGDQASISCRSSQNIKHSDGNTYLEWYLQKPGQSPKLLIYKVSNRFSGVPDRFSGSGSGTDFTLKISRVEAEDLGVYFCFQGSHVPLTFGAGTKLELKR | 53% | 90 pM | 90 pM | 1.44 nM | no binding | no binding | no binding | 2.78 nM | 3.6 nM | 2.08 nM |
| 588E14 (antibody, V domains shown, Purified mouse IgG from a hybridoma; also called 588E14-HC; 588E14-LC) VH: EVQLQQSGPELVGPGESVKISCKGSGYAFTDYGMHWVKQSHAKRLEWIGVITIYDGHTNYNQNFKGKAALTVDKSSNTAYLELARMTSEDSAIYYCARGDYDLFWYLDVWGAGTSVTVSS VL: DIVMTQTPLSLTVSLGDQASISCRSSQNIKHSDGNTYLEWYLQKPGQSPKLLIYKVSNRFSGVPDRFSGSGSGTDFTLKISRVEAEDLGVYFCFQGSHVPLTFGAGTKLELKR | 52% | 70 pM |  | 1.82 nM | no binding | no binding | no binding | 3.04 nM | 2.3 nM | 1.44 nM |
| 588F41 (antibody, V domains shown, Purified mouse IgG from a hybridoma; also called 588F41-HC; 588F41-LC) VH: EVQLQQSGPELVKPGASVKMSCKASGYTFTSYVMHWVKQKPGQGLEWLGYINPYNDGTKYNEKFKGMATLTSDKSSSTAYMELISLTSEDSAVYYCAREASYGNPFAYWGQGTLVTVSA VL: DIVMTQSPASLSASVGETVTITCRTSENIYSYLAWFQQKQGNSPQLLVYNTKTLAEGVPSRFSGSGSGTQFSLKINSLQPEDFGNYYCQHHYDTPWTFGGGTKLEIKR | 59% | 0.66 nM | 2.05 nM | 4.91 nM | no binding | no binding | no binding | 3.2 nM | 4.1 nM | 1.17 nM |
| 588F42 (antibody, V domains shown, Purified mouse IgG from a hybridoma; also called 588F42-HC; 588F42-LC) VH: EVQLQQSGPELVKPGASVKMSCKASGYTFTSYVMHWVKQKPGQGLEWLGYINPYNDGTKYNEKFKGKATLTSDKSSSTAYMELISLTSEDSAVYYCAREASYGNPFAYWGQGTLVTVSA VL: DIVMTQSPASLSASVGETVTITCRTSENIYSYLAWFQQKQGNSPQLLVYNTKTLAEGVPSRFSGSGSGTQFSLKINSLQPEDFGNYYCQHHYDTPWTFGGGTKLEIK | 57% | 1.04 nM | 1.36 nM | 1.8 nM | no binding | no binding | no binding | 3.8 nM | 4.6 nM | 3.03 nM |
| PO-1C9-C4 (antibody, V domains shown, Purified mouse IgG from a hybridoma; also called PO-1C9-C4-HC; PO-1C9-C4-LC) VH: QVQLQQPGSELVRPGASVKLSCKASGYTFTIFWIHWVKQRPGQGLEWIGNIYPGSGGTNYDEKFKSKATLTVDTFSSTAYMQLSSLTSEDSAVYYCTRWGTGKDYWGQGTTLTVSS VL: DIVLTQSPAIMSASPGEKVTMTCRARSSVSSSYLHWYQQKPGSSPKLWIYSTSNLALGVPARFSGSGSGTSYSLTISSVEAEDAATYYCQQYDSSPFTFGTGTKLEIKR | 41% | 6.99 nM | 9.47 nM | 4.62 nM | no binding | no binding | no binding | 2.4 nM | 2.7 nM | 2.9 nM |
| 588F7 (antibody, V domains shown, Purified mouse IgG from a hybridoma; also called 588F7-HC; 588F7-LC) VH: QVQLQQPGSVLVRPGASVKLSCKASGYTFTNSWILWAKRRPGQGLEWIGEIHPNSGNTNYNEKFKGQATLTVDTSSTTAYVDLSRLTSEDSAVYYCARYEGHWGQGTLVTVSA VL: not shown |  |  |  |  | no binding | no binding | no binding |  |  |  |
